Data published in patent US20150368652A1.

Target: Kcna2 protein (Kv1.2), endogenous in rat dorsal root ganglion neurons (rat) (UniProt P63142)
Test: cell-based or functional assay

UniProt P63142, sequence (P63142 whole entry): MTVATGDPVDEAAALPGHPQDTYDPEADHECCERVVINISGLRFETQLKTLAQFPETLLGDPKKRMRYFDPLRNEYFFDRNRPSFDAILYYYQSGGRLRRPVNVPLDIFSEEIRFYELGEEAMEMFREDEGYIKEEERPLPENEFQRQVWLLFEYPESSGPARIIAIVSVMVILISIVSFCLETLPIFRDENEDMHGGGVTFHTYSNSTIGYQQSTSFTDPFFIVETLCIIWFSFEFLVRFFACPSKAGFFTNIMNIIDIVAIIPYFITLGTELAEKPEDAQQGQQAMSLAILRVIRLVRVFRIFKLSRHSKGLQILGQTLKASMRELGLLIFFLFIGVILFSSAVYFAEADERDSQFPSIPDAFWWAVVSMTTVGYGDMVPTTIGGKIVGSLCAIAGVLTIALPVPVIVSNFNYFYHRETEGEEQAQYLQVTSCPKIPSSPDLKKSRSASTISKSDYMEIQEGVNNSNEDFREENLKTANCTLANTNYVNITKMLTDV

## maurotoxin (from UniProt P80719 1-34) (peptide)
  total voltage-gated potassium current retained at +50 mV after 100 nM MTX, large DRG neurons, Kcna2 antisense-treated group (Kcna2 downregulated): 92.3 % of current
  total voltage-gated potassium current retained at +50 mV after 100 nM MTX, large DRG neurons, control group (whole-cell voltage clamp): 81.7 % of current
  total voltage-gated potassium current retained at +50 mV after 100 nM MTX, medium DRG neurons, Kcna2 antisense-treated group (Kcna2 downregulated): 94.9 % of current
  total voltage-gated potassium current retained at +50 mV after 100 nM MTX, medium DRG neurons, control group (whole-cell voltage clamp): 85.1 % of current
